Patent publication US20080057028A1

How the values were obtained:
[1] = molecular target: neuropilin-2 on mouse oligodendrocyte precursor cells (OPCs) (mouse) (UniProt O35375); assay: cell-based or functional assay
[2] = molecular target: VEGFR-3 on mouse oligodendrocyte precursor cells (OPCs) (mouse) (UniProt P35917); assay: cell-based or functional assay
UniProt P35917, sequence (P35917 25-1363): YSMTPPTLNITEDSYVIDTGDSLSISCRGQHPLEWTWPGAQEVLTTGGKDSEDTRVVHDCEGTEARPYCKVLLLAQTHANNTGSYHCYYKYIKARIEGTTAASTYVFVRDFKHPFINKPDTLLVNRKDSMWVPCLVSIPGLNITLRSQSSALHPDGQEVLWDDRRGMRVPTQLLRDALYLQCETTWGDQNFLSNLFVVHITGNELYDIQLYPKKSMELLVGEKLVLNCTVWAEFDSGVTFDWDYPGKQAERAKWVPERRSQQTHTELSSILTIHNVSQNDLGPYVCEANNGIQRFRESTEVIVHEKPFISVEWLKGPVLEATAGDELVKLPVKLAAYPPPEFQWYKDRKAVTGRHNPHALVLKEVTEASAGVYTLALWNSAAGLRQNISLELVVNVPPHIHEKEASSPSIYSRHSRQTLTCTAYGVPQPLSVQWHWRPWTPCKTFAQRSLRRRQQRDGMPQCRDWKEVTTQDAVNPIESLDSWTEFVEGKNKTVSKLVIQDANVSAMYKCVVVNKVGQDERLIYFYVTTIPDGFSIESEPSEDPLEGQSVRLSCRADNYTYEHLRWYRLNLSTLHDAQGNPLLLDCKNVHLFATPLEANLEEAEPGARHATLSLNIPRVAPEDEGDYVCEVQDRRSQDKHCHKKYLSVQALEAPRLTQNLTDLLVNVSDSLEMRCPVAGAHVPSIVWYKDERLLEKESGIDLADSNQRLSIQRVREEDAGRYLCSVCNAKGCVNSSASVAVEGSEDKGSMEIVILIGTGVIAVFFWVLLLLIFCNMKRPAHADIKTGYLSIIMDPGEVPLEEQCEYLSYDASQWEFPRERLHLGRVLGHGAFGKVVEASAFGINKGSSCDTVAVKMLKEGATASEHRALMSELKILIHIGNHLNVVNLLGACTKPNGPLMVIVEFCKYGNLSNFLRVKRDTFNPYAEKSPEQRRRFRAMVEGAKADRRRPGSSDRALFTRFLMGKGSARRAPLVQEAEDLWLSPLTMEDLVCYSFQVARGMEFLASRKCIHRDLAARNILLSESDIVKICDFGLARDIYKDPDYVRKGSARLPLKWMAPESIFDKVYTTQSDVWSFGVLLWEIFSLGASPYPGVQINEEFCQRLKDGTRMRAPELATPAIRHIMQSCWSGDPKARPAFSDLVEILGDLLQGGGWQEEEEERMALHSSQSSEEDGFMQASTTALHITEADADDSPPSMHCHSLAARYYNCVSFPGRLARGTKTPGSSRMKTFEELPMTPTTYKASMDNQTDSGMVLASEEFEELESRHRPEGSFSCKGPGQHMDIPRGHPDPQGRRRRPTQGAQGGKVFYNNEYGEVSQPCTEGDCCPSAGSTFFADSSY

UniProt O35375, sequence (O35375 21-931): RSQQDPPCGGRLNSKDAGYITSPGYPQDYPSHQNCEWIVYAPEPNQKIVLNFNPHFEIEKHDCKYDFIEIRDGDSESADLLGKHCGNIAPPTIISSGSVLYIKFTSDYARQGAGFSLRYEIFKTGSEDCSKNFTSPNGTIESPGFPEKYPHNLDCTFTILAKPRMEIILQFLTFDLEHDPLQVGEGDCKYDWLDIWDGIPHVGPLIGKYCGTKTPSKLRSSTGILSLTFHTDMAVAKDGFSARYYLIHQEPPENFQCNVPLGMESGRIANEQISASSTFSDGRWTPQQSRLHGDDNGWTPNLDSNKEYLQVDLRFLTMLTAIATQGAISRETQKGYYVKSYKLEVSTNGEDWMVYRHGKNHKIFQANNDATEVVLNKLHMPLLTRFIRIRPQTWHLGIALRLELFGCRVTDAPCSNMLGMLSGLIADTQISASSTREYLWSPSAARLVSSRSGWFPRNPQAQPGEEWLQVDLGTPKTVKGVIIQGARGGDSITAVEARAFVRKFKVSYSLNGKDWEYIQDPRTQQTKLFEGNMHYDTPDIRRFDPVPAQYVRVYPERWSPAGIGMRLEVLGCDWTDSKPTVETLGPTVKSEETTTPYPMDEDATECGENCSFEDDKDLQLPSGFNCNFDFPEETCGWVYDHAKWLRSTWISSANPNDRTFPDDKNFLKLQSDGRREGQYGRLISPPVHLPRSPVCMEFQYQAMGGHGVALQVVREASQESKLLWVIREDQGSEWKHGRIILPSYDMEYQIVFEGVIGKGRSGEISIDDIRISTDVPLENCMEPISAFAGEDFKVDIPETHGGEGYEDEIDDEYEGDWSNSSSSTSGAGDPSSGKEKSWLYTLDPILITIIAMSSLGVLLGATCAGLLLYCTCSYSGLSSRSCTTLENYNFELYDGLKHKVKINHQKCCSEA

Substance	BrdU incorporation of A2B5^+ OPCs [1] [fold]	proliferation of OPCs (BrdU^+/A2B5^+ cells) [2]	migration of Olig2^+ OPCs through the filter (transwell) [2] [fold]
VEGF-C (supernatant of COS cells secreting VEGF-C) (ligand)	2		
human VEGF-C156S (R&D Systems) (from UniProt P49767 103-227) (ligand)		50%	
recombinant rat VEGF-C (Reliatech) (from UniProt O35757 99-223) (ligand)		2 fold	> 2
